Target: T1, MutS (Salmonella typhimurium) (UniProt P0A1Y0)
T1 sequence: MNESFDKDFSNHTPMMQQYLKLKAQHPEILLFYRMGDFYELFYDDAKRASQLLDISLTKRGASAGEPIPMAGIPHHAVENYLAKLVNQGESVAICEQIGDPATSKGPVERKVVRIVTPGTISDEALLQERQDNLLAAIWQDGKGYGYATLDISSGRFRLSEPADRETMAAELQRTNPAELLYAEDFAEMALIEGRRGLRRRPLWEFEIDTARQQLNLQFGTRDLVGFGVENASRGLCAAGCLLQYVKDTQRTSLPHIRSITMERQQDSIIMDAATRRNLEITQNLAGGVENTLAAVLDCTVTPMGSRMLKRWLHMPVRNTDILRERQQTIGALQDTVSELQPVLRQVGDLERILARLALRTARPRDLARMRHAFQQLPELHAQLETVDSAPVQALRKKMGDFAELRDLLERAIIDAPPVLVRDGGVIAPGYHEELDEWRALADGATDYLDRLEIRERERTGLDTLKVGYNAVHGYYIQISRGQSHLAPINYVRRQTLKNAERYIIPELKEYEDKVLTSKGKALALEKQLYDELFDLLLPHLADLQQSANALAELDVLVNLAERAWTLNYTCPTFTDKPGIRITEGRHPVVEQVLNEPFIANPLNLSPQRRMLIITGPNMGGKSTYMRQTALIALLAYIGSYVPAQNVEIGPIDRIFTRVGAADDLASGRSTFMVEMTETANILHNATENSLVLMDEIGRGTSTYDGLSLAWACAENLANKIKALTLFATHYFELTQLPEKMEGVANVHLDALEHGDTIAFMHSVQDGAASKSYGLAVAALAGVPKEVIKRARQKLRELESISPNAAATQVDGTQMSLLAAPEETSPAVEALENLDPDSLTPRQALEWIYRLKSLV
Assay: pulldown
Details: on ice

| Substance | binding signal (fold over homoduplex) (immunoprecipitation with anti-MutS, 1 ug lambda competitor DNA) | binding signal (fold (reference)) (homoduplex control precipitated 9.6 fold less, competitor DNA) |
| --- | --- | --- |
| 1 KB AvaII-BglII M13mp8 C-A heteroduplex | 9.6 | – |
| 1 KB AvaII-BglII M13mp8 homoduplex | – | 1 |
